This note sets out measurements from US20110097323A1.

One assay deals with CD16A F158 (human) (UniProt P08637). Put plainly: Table 3; relative to wild-type Fc; method not stated.
A further assay addresses CD16A V158 (human) (UniProt P08637). The description is as above.
A further assay deals with CD32B (FcγRII-B) (UniProt P31994). The description is as above.
The next assay deals with HER-2 (UniProt P04626). The assay can be described thus: SPR (BIAcore 1000), HER-2 amine-coupled to chip, antibody injected at 6.25-200 nM.

Chain of CD32B (FcγRII-B) (P31994 43-217 limits assumed): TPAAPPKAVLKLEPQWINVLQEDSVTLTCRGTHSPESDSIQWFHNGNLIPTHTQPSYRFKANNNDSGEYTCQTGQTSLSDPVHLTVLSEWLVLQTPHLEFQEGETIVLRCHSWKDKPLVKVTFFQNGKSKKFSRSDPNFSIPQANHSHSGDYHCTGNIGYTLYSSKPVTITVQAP
Chain of CD16A F158 (human) (P08637 17-208 limits assumed): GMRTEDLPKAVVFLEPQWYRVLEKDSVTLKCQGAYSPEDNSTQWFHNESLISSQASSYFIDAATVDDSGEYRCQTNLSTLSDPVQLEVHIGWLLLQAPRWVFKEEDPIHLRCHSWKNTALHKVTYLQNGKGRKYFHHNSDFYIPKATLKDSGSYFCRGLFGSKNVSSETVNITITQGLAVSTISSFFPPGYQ
Chain of CD16A V158 (human) (P08637 17-208 F176V limits assumed): as the sequence (P08637 17-208 limits assumed) above, with F160V counted along it

Regarding “Fc variant F243L R292P P300L (from UniProt P0DOX5 228-449)”, the binding relative to wild-type Fc (fold) with CD16A F158 (human) came out at 2.3; with CD16A V158 (human), 6.69; with CD32B (FcγRII-B), 0.32.

“Fc variant F243I R292P Y300L V305I P396L (from UniProt P01857 99-330)”: the binding relative to wild-type Fc (fold) came out at 3.12 with CD16A F158 (human) and 1.05 with CD32B (FcγRII-B).

Take “Fc variant V284M R292P K370N (from UniProt P01857 99-330)”: the binding relative to wild-type Fc (fold) with CD16A F158 (human) is 1.37; with CD16A V158 (human), 1.14; with CD32B (FcγRII-B), 0.37.

Take ch4D5 (antibody): in the assay with HER-2, the koff (commonly the first-order rate constant of dissociation) came out at 6.3e-06 s⁻¹ and the association rate constant (kon) (in general, a measure of how fast the partners come together) was found to be 110000 M⁻¹ s⁻¹.
